This note sets out measurements from patent US20050100540A1, “Platelet-activating factor acetylhydrolase” (priority 1993, published 2005).

What all share (format): biochemical
One test has as its target T1, recombinant PAF-AH (Homo sapiens, UniProt Q13093).
T1 construct: 441 amino acids; At the amino terminus, a relatively hydrophobic segment of 41 residues precedes the N-terminal amino acid (the isoleucine at position 42); made in house; host or cells: E. coli (constructs trp AH / pUC trp AH)
T1 sequence (Q13093 42-441): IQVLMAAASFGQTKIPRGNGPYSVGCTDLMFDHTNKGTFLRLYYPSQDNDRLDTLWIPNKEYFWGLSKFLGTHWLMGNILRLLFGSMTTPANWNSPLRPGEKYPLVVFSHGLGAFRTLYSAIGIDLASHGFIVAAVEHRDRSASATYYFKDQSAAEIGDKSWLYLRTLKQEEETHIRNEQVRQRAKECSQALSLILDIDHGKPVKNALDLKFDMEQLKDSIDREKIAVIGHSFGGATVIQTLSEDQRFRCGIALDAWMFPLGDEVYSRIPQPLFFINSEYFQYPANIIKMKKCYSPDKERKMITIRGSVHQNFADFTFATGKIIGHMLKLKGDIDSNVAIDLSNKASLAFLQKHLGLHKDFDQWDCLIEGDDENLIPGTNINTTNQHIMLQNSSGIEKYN
Put plainly: Inhibition of PAF hydrolysis in standard PAF hydrolysis assay. The following applies: 0 to 125 μM; highest concentration 5-fold greater than PAF. How it is done:
The most remarkable property of the PAF acetylhydrolase is its marked specificity for substrates with a short residue at the sn-2 position of the substrate. This strict specificity distinguishes PAF acetylhydrolase from other forms of PLA2. Thus, to determine if recombinant PAF-AH degrades phospholipids with long-chain fatty acids at the sn-2 position, hydrolysis of 1-palmitoyl-2-arachidonoyl-sn-glycero-3-phosphocholine (arachidonoylPC) was assayed since this is the preferred substrate for a well-characterized form of PLA2. […] In additional experiments, arachidonoylPC was included in a standard PAF hydrolysis assay at concentrations ranging from 0 to 125 μM to determine whether it inhibited the hydrolysis of PAF by recombinant PAF-AH. There was no inhibition of PAF hydrolysis even at the highest concentration of […], which was 5-fold greater than the concentration of PAF. […] Native plasma PAF-AH has several other properties that distinguish it from other phospholipases including calcium-independence and resistance to compounds that modify sulfhydryl groups or disrupt disulfides.

In test [1] the target is recombinant PAF-AH encoded by clone sAH 406-3 (Homo sapiens, UniProt Q13093).
A short description of test [2]: PAF-AH activity of E. coli constructs with extended amino termini (lysate, media). Particulars: trp promoter. The procedure:
PAF-AH activity in transfectant supernatants was determined by the method of Stafforini et al. (1990), supra, with the following modifications. Briefly, PAF-AH activity was determined by measuring the hydrolysis of ^3H-acetate from [acetyl-^3H) PAF (New England Nuclear, Boston, Mass.). The aqueous free ^3H-acetate was separated from labeled substrate by reversed-phase column chromatography over octadecylsilica gel cartridges (Baker Research Products, Phillipsburg, Pa.). Assays were carried out using 10 μl transfectant supernatant in 0.1M Hepes buffer, pH 7.2, in a reaction volume of 50 μl. A total of 50 pmoles of substrate were used per reaction with a ratio of 1:5 labeled: cold PAF. Reactions were incubated for 30 minutes at 37° C. and stopped by the addition of 40 μl of 10M acetic acid. The solution was then washed through the octadecylsilica gel cartridges which were then rinsed with 0.1M sodium acetate. The aqueous eluate from each sample was collected and counted in a liquid scintillation counter for one minute. Enzyme activity was expressed in counts per minute.
and encompassed the termination codon of sAH 406-3 and contained an EcoRV cloning site. PCR reactions were performed essentially as described in Example 3. The resulting PCR product was digested with XbaI and EcoRV and subcloned into a pBR322 vector containing the Trp promoter [deBoer et al., PNAS. 80:21-25 (1983)] immediately upstream of the cloning site. E. coli strain XL-1 Blue was transformed with the expression construct and cultured in L broth containing 100 μg/ml of carbenicillin. Transformants from overnight cultures were pelleted and resuspended in lysis buffer containing 50 mM Tris-HCl pH 7.5, 50 mM NaCl, 10 mM CHAPS, 1 mM EDTA, 100 μg/ml lysozyme, and 0.05 trypsin-inhibiting units (TIU)/ml Aprotinin. Following a 1 hour incubation on ice and sonication for 2 minutes, the lysates were assayed for PAF-AH activity by the method described in Example 4. E. coli transformed with the expression construct (designated trp AH) generated a product with PAF-AH activity.
Several E. coli expression constructs were also evaluated which produce PAF-AH with extended amino termini. The N-terminus of natural plasma PAF-AH was identified as Ile42 by amino acid sequencing (Example 2). […] Acids Res., 14:4683-4690 (1986)]. Presumably a more classical signal sequence (M1-A17) is recognized by the cellular secretion system, followed by endoproteolytic cleavage. The entire coding sequence for PAF-AH beginning at the initiating methionine (nucleotides 162 to 1487 of SEQ ID NO: 7) was engineered for expression in E. coli using the trp promoter. […] Another expression construct, beginning at Val18 (nucleotides 213 to-1487 of SEQ ID NO: 7), produced active PAF-AH at about one third the level of the original construct.

Take `CCCCC/C=C\C/C=C\C/C=C\C/C=C\CCCC(=O)O[C@H](COC(=O)CCCCCCCCCCCCCCC)COP(=O)([O-])OCC[N+](C)(C)C` [arachidonoylPC, 1-palmitoyl-2-arachidonoyl-sn-glycero-3-phosphocholine]: on recombinant PAF-AH, the “Inhibition of hydrolysis of PAF by recombinant PAF-AH” value is “no inhibition”.

Take `O=C(O)CN(CCN(CC(=O)O)CC(=O)O)CC(=O)O` [EDTA, reference compound]: the “Effect on PAF-AH activity of media from cells transfected with sAH 406-3” value in test [1] is “unaffected”.

B1: sAH 406-3: Full length human plasma PAF-AH cDNA clone, product transiently expressed in COS 7 cells (protein)
chain: MVPPKLHVLFCLCGCLAVVYPFDWQYINPVAHMKSSAWVNKIQVLMAAASFGQTKIPRGNGPYSVGCTDLMFDHTNKGTFLRLYYPSQDNDRLDTLWIPNKEYFWGLSKFLGTHWLMGNILRLLFGSMTTPANWNSPLRPGEKYPLVVFSHGLGAFRTLYSAIGIDLASHGFIVAAVEHRDRSASATYYFKDQSAAEIGDKSWLYLRTLKQEEETHIRNEQVRQRAKECSQALSLILDIDHGKPVKNALDLKFDMEQLKDSIDREKIAVIGHSFGGATVIQTLSEDQRFRCGIALDAWMFPLGDEVYSRIPQPLFFINSEYFQYPANIIKMKKCYSPDKERKMITIRGSVHQNFADFTFATGKIIGHMLKLKGDIDSNVAIDLSNKASLAFLQKHLGLHKDFDQWDCLIEGDDENLIPGTNINTTNQHIMLQNSSGIEKYN
Regarding B1, the “PAF-AH activity of transfected COS cell media relative to background” value in test [1] is 4 fold.

B2: pUC trp AH Met1: PAF-AH from entire coding sequence beginning at the initiating methionine, E. coli, trp promoter (protein, UniProt Q13093 1-441, looked up)
chain: MVPPKLHVLFCLCGCLAVVYPFDWQYINPVAHMKSSAWVNKIQVLMAAASFGQTKIPRGNGPYSVGCTDLMFDHTNKGTFLRLYYPSQDNDRLDTLWIPNKEYFWGLSKFLGTHWLMGNILRLLFGSMTTPANWNSPLRPGEKYPLVVFSHGLGAFRTLYSAIGIDLASHGFIVAAVEHRDRSASATYYFKDQSAAEIGDKSWLYLRTLKQEEETHIRNEQVRQRAKECSQALSLILDIDHGKPVKNALDLKFDMEQLKDSIDREKIAVIGHSFGGATVIQTLSEDQRFRCGIALDAWMFPLGDEVYSRIPQPLFFINSEYFQYPANIIKMKKCYSPDKERKMITIRGSVHQNFADFTFATGKIIGHMLKLKGDIDSNVAIDLSNKASLAFLQKHLGLHKDFDQWDCLIEGDDENLIPGTNINTTNQHIMLQNSSGIEKYN
modifications: full-length
Regarding B2, the “PAF-AH activity, Lysate” value in test [2] (E. coli lysate) came to 3.1 U/ml/OD600. For the same molecule, in test [2] (E. coli media), the “PAF-AH activity, Media” value turned out to be 0.003 U/ml/OD600.
